Article PMC6941993 (2020)

B1: GP1_(SBAV)–Fc (Fc fusion)
chain: DHPTSCMVNHSTYYVHENKNATWCLEVSVTDVTLLMAEHDRQVLNNLSNCVHPAVEHRSRMVGLLEWIFRALKYDFNHDPTPLCQKQTSTVNETRVQINITEGFGSHGFEDTILQRLGVLFGSRIAFSNIQDLGKKRFLLIRNSTWKNQCEM
B2: GP1_(GTOV)–Fc (Fc fusion)
chain: ELPSLCRVNNSYSLIRLSHNSNQALSVEYVDVHPVLCSSSPTILDNYTQCIKGSPEFDWILGWTIKGLGHDFLRDPRICCEPKKTTNAEFTFQLNLTDSPETHHYRSKIEVGIRHLFGNYITNDSYSKMSVVMRNTTWEGQCSN

Target: stand-alone apical domain (sAD) designed from White-throated woodrat TfR1 (Neotoma albigula (White-throated …, N-linked glycan at Asn251 seen in the crystal)); two putative N-glycosylation sites (Asn204, Asn251), both partially glycosylated)
Experiment: SPR

| Binder | Kd |
| --- | --- |
| B1 | 63 nM |
| B2 | 360 nM |
